The term Kd denotes the concentration at which binding is half-saturated.

This test addresses Recombinant B56α (UniProt Q15172 1-486). Description: ITC.

Chain of Recombinant B56α (Q15172 whole entry): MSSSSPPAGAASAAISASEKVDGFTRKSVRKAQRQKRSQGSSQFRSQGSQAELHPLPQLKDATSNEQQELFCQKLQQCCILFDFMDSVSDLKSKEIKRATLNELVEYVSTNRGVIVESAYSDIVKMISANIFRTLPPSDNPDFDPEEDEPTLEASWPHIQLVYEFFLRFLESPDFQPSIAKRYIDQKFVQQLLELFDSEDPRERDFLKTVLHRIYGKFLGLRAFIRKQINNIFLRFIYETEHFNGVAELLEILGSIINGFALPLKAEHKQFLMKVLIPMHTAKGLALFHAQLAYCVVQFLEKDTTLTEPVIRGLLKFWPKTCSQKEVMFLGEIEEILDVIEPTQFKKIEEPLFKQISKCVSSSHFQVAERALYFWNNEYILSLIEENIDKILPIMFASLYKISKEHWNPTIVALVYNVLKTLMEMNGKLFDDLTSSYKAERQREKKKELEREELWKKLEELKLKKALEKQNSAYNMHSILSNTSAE

B1: His-tagged 4x(LxxIxE) B56 inhibitor (designed binder)
chain: TGSTGSTGSTGSTGSLPRSSTLPTIHEEEELSLCTGSTGSTGSTGSTGSLPRSSTLPTIHEEEELSLCTGSTGSTGSTGSTGSLPRSSTLPTIHEEEELSLCTGSTGSTGSTGSTGSLPRSSTLPTIHEEEELSLC
In the case of B1, the Kd was determined as 100 nM.

For the molecule TGSTGSTGSTGSTGSLPRSSTLPTIHEEEELSLC (designed binder) [His-tagged 1x(LxxIxE) B56 inhibitor], the Kd was 1300 nM.

B2: His-tagged 2x(LxxIxE) B56 inhibitor (designed binder)
chain: TGSTGSTGSTGSTGSLPRSSTLPTIHEEEELSLCTGSTGSTGSTGSTGSLPRSSTLPTIHEEEELSLC
For B2, the Kd is 200 nM.

For the origin of these results see PMC7327492 (2020).
